The subject of data set [1] is leptin resistant mHypoA2/21-SOCS3 cells. Description: Biological activity test: overcoming leptin resistance (STAT3 phosphorylation, western blot). Format: cell-based. To be noted: protein treated 1 hour, then 10 ng/mL mouse leptin 30 minutes. The method, then: To validate that cell-permeable truncated SOCS3 recombinant protein can overcome leptin resistance, the purified recombinant proteins were treated at leptin resistant cell line mHypoA2/21-SOCS3. mHypoA2/21-SOCS3 was produced by over-expressing SOCS3 at mouse hypothalamic neuron mHypoA2/21, and cultured using DMEM containing 10% FBS and 7 mg/mL geneticin. Cells were seeded at the concentration of 150000 cells/60 mm plate and on the following day the medium was replaced with 7 mg/mL geneticin containing serum free DMEM and starved the cells for the following 16 hours. Purified CP-SD recombinant proteins were diluted into 7 mg/mL geneticin containing serum free DMEM and treated for 1 hour, proteins were removed, and 10 ng/mL mouse leptin was treated for 30 minutes.
The cells were lysed in a lysis buffer (150 mM NaCl, 20 mM Tris, 1% triton-X-100, pH 7.5) containing protease inhibitor and […], incubated for 20 min at 4° C., and centrifuged at 13,000 rpm for 20 min at 4° C. Equal amounts of lysates were separated on 10% SDS-PAGE gels and transferred to a PVDF membrane. The membranes were blocked using TBST buffer 5% bovine serum albumin (BSA) and for western blot analysis incubated with the following antibodies diluted in TBST buffer 5% bovine serum albumin (BSA): anti-phospho-STAT3 (Cell Signaling Technology, USA), anti-STAT3 (Cell Signaling Technology, USA) and anti-myc (Cell Signaling Technology, USA), then HRP conjugated anti-rabbit secondary antibody (Cell Signaling Technology, USA) and anti-mouse secondary antibody (Cell Signaling Technology, USA). The protein bands were detected with ECL solution using luminescent image analyzer (ImageQuant LAS 500, GE Healthcare).
In general terms: Immunoblotting shows a protein as a band on a membrane.

The nature of data set [2]: Turbidity with thermal stress of 37° C. (absorbance at 350 nm). Format: physicochemical. To be noted: for stability (turbidity) in serum free medium: thermal stress of 37° C. The method, then:
The recombinant proteins were diluted in their storage buffer or serum free DMEM medium and added into wells of a clear 96 well plate. The plate was incubated at 37° C. and the absorbance of each well was measured at 350 nm every 30 minutes in a microplate reader (Synergy H1, BioTek).

Data set [3] has as its target T1, Phosphorylated human leptin receptor peptide (QRQPFVK[pY] ATLISNSK), phosphorylated Y985 (Homo sapiens, UniProt P48357).
T1 construct: Phosphorylated human leptin receptor peptide (QRQPFVK[pY] ATLISNSK); purchased Anygen (Gwangju, Korea); host or cells: synthetic peptide
The experiment in a line: Binding affinity to leptin receptor by isothermal titration calorimetry (ITC). Particulars: leptin receptor peptide phosphorylated at Y985, storage buffer pH 4.0. The method, then:
The binding affinity of cell-permeable truncated SOCS3 SH2 domain recombinant proteins to leptin receptor was analysed using isothermal titration calorimetry (ITC). Phosphorylated human leptin receptor peptide (QRQPFVK[pY] ATLISNSK) used in the experiment was acquired from Anygen (Gwangju, Korea). The binding affinity of aMTD524-P2-1-6 was measured using the following methods. Leptin receptor peptide was dissolved into DMSO and was diluted into storage buffer (50 mM sodium acetate, 50 mM NaCl, pH 4.0) to reach a final peptide concentration of 400 μM and final DMSO concentration of 0.5%. Using dialysis method, purified aMTD524-P2-1-6 was maintained at the identical batch storage buffer, and was diluted to reach the final concentration of 50 μM. Next, binding affinity was measured using ITC (Auto-ITC200).

As usually defined, the Kd is a measure of binding affinity in units of concentration.

B1: aMTD524-P2-1-23: SEQ ID No. 280; contains SH2 (L69-Q96), SH2 (H125-M128) and SH2 (A164-N185) (protein)
chain: AVALIVVPALAPEAAAKLIRDSSDQRHFFTLSVKTQSGTKNLRIQEAAAKEAAAKEAAAKEAAAKHHYMGSGSGSGSAYYIYSGGEKIPLVLSRPLSSN
modifications: Amino acid Sequence of aMTD-P2-1-23
B1: in data set [1], the “overcoming leptin resistance (STAT3 phosphorylation level)” value (“overcoming leptin resistance” below) is listed as “did not”.

B2: aMTD524-P2-1-21: SEQ ID No. 279; contains SH2 (T52-A62), (L69-Q96), (V120-M128) and (A164-N185) (protein)
chain: TGGEANLLLSAGSGSGSGSGSGSGSGSAVALIVVPALAPEAAAKLIRDSSDQRHFFTLSVKTQSGTKNLRIQGGGGSGGGGSGGGGSGGGGSVLKLVHHYMGSGSGSGSAYYIYSGGEKIPLVLSRPLSS
modifications: Amino acid Sequence of aMTD-P2-1-21
For the molecule B2, the “overcoming leptin resistance” value in data set [1] is listed as “did not”.

B3: aMTD830-P2-1-24B: SEQ ID No. 261; aMTD830-replaced P2-1-24B (protein)
chain: IALVAAPVALVPEAAAKLIRDSSDQRHFFTLSVKTQSGTKNLRIQGGGGSGGGGSGGGGSGGGGSHHYMGSGSGSGSAYYIYSGGEKIPLVLSRPLSSNEAAAKEAAAKEAAAKMAEQSDKDVKYYTLEEIQKHKDSKSTWLILHHKVYDLTKFLEEHPGGEEVLGEQAGGDATENFEDVGHSTDARELSKTYIIGELHPDDRSKIAKPSETL
modifications: Amino acid Sequence of aMTD830-P2-1-24B
notes: aMTD830-replaced P2-1-24B
Take B3: in data set [1], the “overcoming leptin resistance” value is “overcame leptin resistance”. The “stability (turbidity) in serum free medium” value in data set [2] was “stable”.

B4: aMTD524-P2-1-24: SEQ ID No. 281; same regions as aMTD524-P2-1-23 with different linkers (protein)
chain: AVALIVVPALAPEAAAKLIRDSSDQRHFFTLSVKTQSGTKNLRIQGGGGSGGGGSGGGGSGGGGSHHYMGSGSGSGSAYYIYSGGEKIPLVLSRPLSSN
modifications: Amino acid Sequence of aMTD-P2-1-24
notes: same regions as aMTD524-P2-1-23 with different linkers
B4: in data set [1], the “overcoming leptin resistance” value is on record as “overcame leptin resistance”. Besides, the “stability (turbidity) in serum free medium” value in data set [2] is recorded as “instability”.

B5: aMTD830-P2-1-32B: SEQ ID No. 266; aMTD830-replaced P2-1-32B (protein)
chain: IALVAAPVALVPEAAAKLIRDSSDQRHFFTLSVKTQSGTKNLRIQGGGGSGGGGSGGGGSGGGGSAYYIYSGGEKIPLVLSRPLSSNEAAAKEAAAKEAAAKMAEQSDKDVKYYTLEEIQKHKDSKSTWLILHHKVYDLTKFLEEHPGGEEVLGEQAGGDATENFEDVGHSTDARELSKTYIIGELHPDDRSKIAKPSETL
modifications: Amino acid Sequence of aMTD830-P2-1-32B
notes: aMTD830-replaced P2-1-32B
With B5, in data set [1], the “overcoming leptin resistance” value was “overcame leptin resistance”. Besides, the “stability (turbidity) in serum free medium” value in data set [2] is given as “stable”.

B6: aMTD524-37: SEQ ID No. 283; truncate from the SH2 domain containing aMTD and SH2 (L69-Q96) (protein)
chain: AVALIVVPALAPEAAAKLIRDSSDQRHFFTLSVKTQSGTKNLRIQCEGGSFSLQSDPRSTQPVPRFDCVLKLVHHYM
modifications: Amino acid Sequence of aMTD524-37
As for B6, the “overcoming leptin resistance” value in data set [1] is recorded as “did not overcome leptin resistance”.

B7: aMTD830-P2-1B: SEQ ID No. 255; aMTD830-replaced P2-1B, SH2 (L69-Q96) and SDB (protein)
chain: IALVAAPVALVPEAAAKLIRDSSDQRHFFTLSVKTQSGTKNLRIQEAAAKEAAAKEAAAKMAEQSDKDVKYYTLEEIQKHKDSKSTWLILHHKVYDLTKFLEEHPGGEEVLGEQAGGDATENFEDVGHSTDARELSKTYIIGELHPDDRSKIAKPSETL
modifications: Amino acid Sequence of aMTD830-P2-1B
notes: aMTD830-replaced P2-1B, SH2 (L69-Q96) and SDB
In the case of B7, the “overcoming leptin resistance” value in data set [1] is reported as “overcame leptin resistance”. Moreover, the “stability (turbidity) in serum free medium” value in data set [2] is given as “stable”.

B8: aMTD524-P2-1-6: SEQ ID No. 268; his tag-conjugated aMTD524-P2-1 (protein)
chain: GSSHHHHHHSSGLVPRGSHMAVALIVVPALAPEAAAKLIRDSSDQRHFFTLSVKTQSGTKNLRIQ
modifications: His tag; Amino acid Sequence of aMTD524-P2-1-6
Turning to B8, the Kd in data set [3] turned out to be 8 µM. For the same molecule, the “overcoming leptin resistance” value in data set [1] was “overcame leptin resistance”. In addition, the “stability (turbidity) in storage buffer” value in data set [2] (thermal stress of 37° C. for 3 hours, storage buffer) is reported as “stable”.

B9: aMTD524-36: SEQ ID No. 282; truncate from the SH2 domain containing aMTD and SH2 (L69-Q96) (protein)
chain: AVALIVVPALAPEAAAKGFYWSAVTGGEANLLLSAEPAGTFLIRDSSDQRHFFTLSVKTQSGTKNLRIQCEGGSFSLQSDPRSTQPVPRFDCVLKLVHHYMGSGSGSGSAYYIYSGGEKIPLVLSRPLSSN
modifications: Amino acid Sequence of aMTD524-36
As for B9, the “overcoming leptin resistance” value in data set [1] is given as “did not overcome leptin resistance”.
